Where two headings read alike, the source gives them in different places.
T1: rgyr (reverse gyrase, full-length wild type) (Thermotoga maritima, UniProt O51934)
T1 sequence (O51934 1-1104): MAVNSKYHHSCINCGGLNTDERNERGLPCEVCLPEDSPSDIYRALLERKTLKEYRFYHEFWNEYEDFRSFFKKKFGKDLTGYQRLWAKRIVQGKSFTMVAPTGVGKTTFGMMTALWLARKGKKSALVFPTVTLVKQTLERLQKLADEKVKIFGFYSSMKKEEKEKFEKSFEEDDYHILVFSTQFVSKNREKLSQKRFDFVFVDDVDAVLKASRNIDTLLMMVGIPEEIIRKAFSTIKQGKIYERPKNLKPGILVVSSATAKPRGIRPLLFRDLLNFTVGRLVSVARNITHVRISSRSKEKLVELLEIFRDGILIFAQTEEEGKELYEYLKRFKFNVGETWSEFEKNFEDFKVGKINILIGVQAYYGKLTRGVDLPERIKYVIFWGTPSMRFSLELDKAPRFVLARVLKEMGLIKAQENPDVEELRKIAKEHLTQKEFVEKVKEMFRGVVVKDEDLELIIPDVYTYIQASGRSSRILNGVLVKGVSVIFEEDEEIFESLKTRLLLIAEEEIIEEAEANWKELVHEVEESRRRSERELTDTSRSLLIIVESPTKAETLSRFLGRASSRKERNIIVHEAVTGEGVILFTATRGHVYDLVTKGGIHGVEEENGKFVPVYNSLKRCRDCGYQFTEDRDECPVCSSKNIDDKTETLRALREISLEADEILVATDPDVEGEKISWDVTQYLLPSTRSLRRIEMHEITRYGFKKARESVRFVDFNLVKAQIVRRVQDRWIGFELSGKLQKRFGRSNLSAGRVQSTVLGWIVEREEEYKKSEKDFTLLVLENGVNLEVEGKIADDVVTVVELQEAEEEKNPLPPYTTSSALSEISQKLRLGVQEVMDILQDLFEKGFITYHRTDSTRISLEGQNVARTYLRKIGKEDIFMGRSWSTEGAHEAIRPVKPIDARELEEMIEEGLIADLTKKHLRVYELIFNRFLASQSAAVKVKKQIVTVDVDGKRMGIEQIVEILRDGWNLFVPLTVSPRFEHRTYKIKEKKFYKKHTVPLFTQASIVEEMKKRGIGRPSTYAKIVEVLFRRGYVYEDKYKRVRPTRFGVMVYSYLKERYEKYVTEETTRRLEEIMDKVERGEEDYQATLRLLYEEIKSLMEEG

T2: isolated latch (H3) (Thermotoga maritima, UniProt O51934 388-459)
T2 sequence: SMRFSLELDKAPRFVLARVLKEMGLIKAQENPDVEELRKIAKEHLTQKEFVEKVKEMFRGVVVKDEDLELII

T3: rgyr_hel_Δlatch (Thermotoga maritima, UniProt O51934 59-388+=G+460-541, internal_change)
T3 sequence: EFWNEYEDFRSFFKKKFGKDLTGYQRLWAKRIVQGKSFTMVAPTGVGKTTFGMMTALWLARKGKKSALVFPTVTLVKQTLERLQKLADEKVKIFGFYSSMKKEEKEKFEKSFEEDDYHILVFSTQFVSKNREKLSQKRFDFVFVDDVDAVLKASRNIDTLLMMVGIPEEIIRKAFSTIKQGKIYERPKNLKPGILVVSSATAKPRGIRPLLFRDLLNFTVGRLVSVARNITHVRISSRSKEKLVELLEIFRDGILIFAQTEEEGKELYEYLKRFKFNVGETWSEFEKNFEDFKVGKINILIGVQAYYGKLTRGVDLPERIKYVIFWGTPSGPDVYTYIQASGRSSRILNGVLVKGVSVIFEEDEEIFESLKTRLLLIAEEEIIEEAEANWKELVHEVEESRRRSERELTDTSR

T4: rgyr_Δlatch (Thermotoga maritima, UniProt O51934 1-1104, del389-459)
T4 sequence: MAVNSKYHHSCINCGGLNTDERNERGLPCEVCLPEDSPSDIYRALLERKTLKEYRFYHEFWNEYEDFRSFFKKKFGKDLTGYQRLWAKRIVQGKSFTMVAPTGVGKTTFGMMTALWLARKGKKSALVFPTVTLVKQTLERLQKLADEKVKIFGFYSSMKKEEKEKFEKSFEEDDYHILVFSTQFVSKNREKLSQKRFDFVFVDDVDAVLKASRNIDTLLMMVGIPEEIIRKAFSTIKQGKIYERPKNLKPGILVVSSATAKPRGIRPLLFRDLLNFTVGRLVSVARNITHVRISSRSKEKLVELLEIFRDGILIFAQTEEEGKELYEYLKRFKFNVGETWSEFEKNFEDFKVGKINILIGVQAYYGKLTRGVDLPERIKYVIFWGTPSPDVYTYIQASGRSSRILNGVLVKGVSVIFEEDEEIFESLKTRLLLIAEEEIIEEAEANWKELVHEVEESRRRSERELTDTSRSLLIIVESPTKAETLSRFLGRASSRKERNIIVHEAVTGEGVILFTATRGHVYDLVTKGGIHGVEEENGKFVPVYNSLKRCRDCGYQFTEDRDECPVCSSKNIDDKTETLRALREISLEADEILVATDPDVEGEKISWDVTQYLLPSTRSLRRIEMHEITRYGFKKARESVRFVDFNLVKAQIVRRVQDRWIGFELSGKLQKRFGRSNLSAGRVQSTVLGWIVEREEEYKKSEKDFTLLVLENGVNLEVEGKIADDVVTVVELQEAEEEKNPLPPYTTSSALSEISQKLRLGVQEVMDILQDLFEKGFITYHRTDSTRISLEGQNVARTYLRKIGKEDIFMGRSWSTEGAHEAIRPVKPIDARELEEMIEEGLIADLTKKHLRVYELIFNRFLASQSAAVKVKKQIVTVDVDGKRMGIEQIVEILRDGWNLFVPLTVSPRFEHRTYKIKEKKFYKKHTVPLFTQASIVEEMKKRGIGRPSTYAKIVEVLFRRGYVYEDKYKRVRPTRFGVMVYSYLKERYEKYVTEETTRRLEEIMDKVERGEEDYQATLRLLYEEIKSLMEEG

B1: rgyr_Δlatch (reverse gyrase lacking the latch region) (Thermotoga maritima MSB8; DEL389-459/INS388G) (protein)
chain: MAVNSKYHHSCINCGGLNTDERNERGLPCEVCLPEDSPSDIYRALLERKTLKEYRFYHEFWNEYEDFRSFFKKKFGKDLTGYQRLWAKRIVQGKSFTMVAPTGVGKTTFGMMTALWLARKGKKSALVFPTVTLVKQTLERLQKLADEKVKIFGFYSSMKKEEKEKFEKSFEEDDYHILVFSTQFVSKNREKLSQKRFDFVFVDDVDAVLKASRNIDTLLMMVGIPEEIIRKAFSTIKQGKIYERPKNLKPGILVVSSATAKPRGIRPLLFRDLLNFTVGRLVSVARNITHVRISSRSKEKLVELLEIFRDGILIFAQTEEEGKELYEYLKRFKFNVGETWSEFEKNFEDFKVGKINILIGVQAYYGKLTRGVDLPERIKYVIFWGTPSGPDVYTYIQASGRSSRILNGVLVKGVSVIFEEDEEIFESLKTRLLLIAEEEIIEEAEANWKELVHEVEESRRRSERELTDTSRSLLIIVESPTKAETLSRFLGRASSRKERNIIVHEAVTGEGVILFTATRGHVYDLVTKGGIHGVEEENGKFVPVYNSLKRCRDCGYQFTEDRDECPVCSSKNIDDKTETLRALREISLEADEILVATDPDVEGEKISWDVTQYLLPSTRSLRRIEMHEITRYGFKKARESVRFVDFNLVKAQIVRRVQDRWIGFELSGKLQKRFGRSNLSAGRVQSTVLGWIVEREEEYKKSEKDFTLLVLENGVNLEVEGKIADDVVTVVELQEAEEEKNPLPPYTTSSALSEISQKLRLGVQEVMDILQDLFEKGFITYHRTDSTRISLEGQNVARTYLRKIGKEDIFMGRSWSTEGAHEAIRPVKPIDARELEEMIEEGLIADLTKKHLRVYELIFNRFLASQSAAVKVKKQIVTVDVDGKRMGIEQIVEILRDGWNLFVPLTVSPRFEHRTYKIKEKKFYKKHTVPLFTQASIVEEMKKRGIGRPSTYAKIVEVLFRRGYVYEDKYKRVRPTRFGVMVYSYLKERYEKYVTEETTRRLEEIMDKVERGEEDYQATLRLLYEEIKSLMEEG
B2: rgyr_hel_Δlatch (helicase-like domain lacking the latch) (Thermotoga maritima MSB8; DEL389-459/INS388G) (protein)
chain: T3 sequence
B3: 60 b ssDNA (ssDNA)
DNA: AAGCCAAGCTTCTAGAGTCAGCCCGTGATATTCATTACTTCTTATCCTAGGATCCCCGTT
B4: 60 bp dsDNA (dsDNA)
DNA 1: B3 DNA
DNA 2: AACGGGGATCCTAGGATAAGAAGTAATGAATATCACGGGCTGACTCTAGAAGCTTGGCTT

What was measured:
[1] = biological target: T1, rgyr (reverse gyrase, full-length wild type); experiment: fluorescence equilibrium titration; assay type: binding
[2] = biological target: rgyr_Δlatch (reverse gyrase lacking the latch region) (Thermotoga maritima, UniProt O51934, DEL389-459/INS388G); experiment: biochemical
purified protein = substrate: Nc1ncnc2c1ncn2[C@@H]1O[C@H](COP(=O)(O)OP(=O)(O)OP(=O)(O)O)[C@@H](O)[C@H]1O; experiment: purified protein; conditions: no DNA, pH 7.5, 10 mM MgCl2, 0.15 M NaCl
isolated latch (H3) = biological target: T2, isolated latch (H3); experiment: fluorescence anisotropy
rgyr_hel_Δlatch = biological target: T3, rgyr_hel_Δlatch; experiment: fluorescence anisotropy
rgyr_Δlatch [3] = biological target: T4, rgyr_Δlatch; experiment: fluorescence anisotropy
rgyr_Δlatch [4] = biological target: T4, rgyr_Δlatch; experiment: fluorescence anisotropy; remark: listed apart in the source

| Molecule | Km (purified protein) [µM] | kcat (purified protein) [s⁻¹] | Kd (isolated latch (H3)) [µM] | Kd (rgyr_hel_Δlatch) [µM] | also measured |
| --- | --- | --- | --- | --- | --- |
| Nc1ncnc2c1ncn2[C@@H]1O[C@H](COP(=O)(O)OP(=O)(O)NP(=O)(O)O)[C@@H](O)[C@H]1O [ADPNP] |  |  |  |  | Kd [1]: 10 ± 0.8 µM; Kd [2]: 4.7 ± 0.8 µM |
| B1 | 26.5 ± 3.5 | 0.018 |  |  |  |
| B2 | 67 ± 18 | 0.02 |  |  |  |
| B3 |  |  | 64 ± 29 | 0.42 ± 0.07 | Kd (rgyr_Δlatch [3]): 0.033 ± 0.077 µM |
| B4 |  |  | 78 ± 39 | 21 ± 5 | Kd (rgyr_Δlatch [4]): 0.096 ± 0.019 µM |
